Test results taken from EP0907730B1 (Zenyth Operations Pty Ltd, dated 2009).

Experiments:
[1] = molecular target: T1, IL-4 receptor expressed by parental CTLL cells (UniProt P16382 26-810, limits assumed); assay: 125I-IL-13 saturation binding on parental CTLL cells
T1 construct: whole, on cells; Endogenous receptor of untransfected CTLL cells; also called IL-4 receptors expressed by CTLL cells; IL-4Rα
T1 sequence (looked up): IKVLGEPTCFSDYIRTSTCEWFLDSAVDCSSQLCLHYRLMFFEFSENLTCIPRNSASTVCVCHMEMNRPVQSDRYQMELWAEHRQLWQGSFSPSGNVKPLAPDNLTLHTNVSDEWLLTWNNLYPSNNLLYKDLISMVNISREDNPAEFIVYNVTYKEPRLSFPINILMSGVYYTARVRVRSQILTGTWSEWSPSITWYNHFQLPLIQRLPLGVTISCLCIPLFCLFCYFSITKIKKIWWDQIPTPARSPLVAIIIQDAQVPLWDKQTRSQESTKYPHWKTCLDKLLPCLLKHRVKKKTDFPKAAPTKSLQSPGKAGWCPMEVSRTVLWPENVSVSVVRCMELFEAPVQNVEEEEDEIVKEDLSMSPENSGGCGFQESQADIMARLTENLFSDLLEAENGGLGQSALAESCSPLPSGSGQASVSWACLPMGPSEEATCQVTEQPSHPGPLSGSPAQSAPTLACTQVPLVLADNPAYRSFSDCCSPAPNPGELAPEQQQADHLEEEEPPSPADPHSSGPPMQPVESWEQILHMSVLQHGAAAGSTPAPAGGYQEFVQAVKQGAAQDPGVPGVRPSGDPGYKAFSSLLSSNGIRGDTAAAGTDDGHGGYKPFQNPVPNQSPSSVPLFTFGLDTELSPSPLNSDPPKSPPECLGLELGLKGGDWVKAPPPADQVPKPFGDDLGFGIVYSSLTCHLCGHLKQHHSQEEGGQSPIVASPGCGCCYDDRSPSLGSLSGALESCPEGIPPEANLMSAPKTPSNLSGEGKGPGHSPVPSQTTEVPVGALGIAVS

[2] = molecular target: T1, IL-4 receptor expressed by parental …; assay: 125I-IL-4 saturation binding (Scatchard) on parental CTLL cells

B1: IL-13 (obtained commercially, R & D Systems) (ligand, UniProt P20109 19-131, looked up)
chain: APGPVPRSVSLPLTLKELIEELSNITQDQTPLCNGSMVWSVDLAAGGFCVALDSLTNISNCNAIYRTQRILHGLCNRKAPTTVSSLPDTKIEVAHFITKLLSYTKQLFRHGPF
modifications: radioiodinated (125I, iodine monochloride method) where used as tracer
notes: also called interleukin-13
B1: no binding [1].

B2: IL-4 (obtained commercially, R & D Systems) (ligand, UniProt P07750 23-140, looked up)
chain: HGCDKNHLREIIGILNEVTGEGTPCTEMDVPNVLTATKNTTESELVCRASKVLRIFYLKHGKTPCLKKNSSVLMELQRLFRAFRCLDSSISCTMNESKSTSLKDFLESLKSIMQMDYS
modifications: radiolabelled with di-iodo-Bolton-Hunter reagent (125I) where used as tracer
notes: also called interleukin-4
B2 showed a Kd [2] of roughly 0.66 nM.
